Experimental data taken from US20150183884A1 (NATIONAL HEALTH RESEARCH INSTITUTES, published 2015).

Tests used:
[1] = target: T1, BSA (bovine, UniProt P02769); assay: ELISA, BSA as background
T1 construct: also called BSA background
Excerpt: This reaction solution was subjected to 2% agarose gel electrophoresis to analyze the reaction products. Reaction products with the correct molecular weights were ligated into a pCR 2.1-TOPO vector (manufactured by Invitrogen) for subcloning in accordance with the attached instruction manual. M13 forward (5′-[…]-3′(SEQ ID NO: 11) and M13 reverse (5′-CAG GAAACA GCT ATG AC-3′ (SEQ ID NO: 12)) primers were then used to determine the nucleotide sequence. Every mutation clone with the correct sequences was digested with restriction enzymes BamHI and XhoI, and the digestion products were subjected to 2% agarose gel electrophoresis. The insertion fragment of each mutant was cut from the agarose gel and purified with a Gene Clean Kit in accordance with the attached instruction manual provided by the manufacturer (BIO101). The BamHI and XhoI DNA fragment of each mutant was ligated to the BamHI and XhoI sites of an E. coli expression vector pTRC His A (Invitrogen). The resulting plasmid was transformed into E. coli BL21 Rosseta. The ENO1 mutation protein was expressed in E. coli by IPTG induction and purified by Ni-agarose in accordance with the attached instruction manual provided by the manufacturer (Qiagen) after the bacteria pellet was sonicated. The purity of each mutant was analyzed by 12% SDS PAGE. […] The binding affinity was determined by the readings of OD 405. […]

[2] = target: ENO1 deletion mutant Δ1-297 (human) (UniProt P06733); assay: ELISA on coated mutant protein, 10 microgram EN10 mAb
[3] = target: ENO1 deletion mutant Δ1-189 (human) (UniProt P06733); assay: as above
[4] = target: ENO1 deletion Δ297-434 mutant (human) (UniProt P06733); assay: ELISA on coated ENO1 protein or mutant, 10 microgram EN10 mAb
ENO1 deletion Δ297-434 mutant (human), sequence (P06733 1-296, stated change not applied): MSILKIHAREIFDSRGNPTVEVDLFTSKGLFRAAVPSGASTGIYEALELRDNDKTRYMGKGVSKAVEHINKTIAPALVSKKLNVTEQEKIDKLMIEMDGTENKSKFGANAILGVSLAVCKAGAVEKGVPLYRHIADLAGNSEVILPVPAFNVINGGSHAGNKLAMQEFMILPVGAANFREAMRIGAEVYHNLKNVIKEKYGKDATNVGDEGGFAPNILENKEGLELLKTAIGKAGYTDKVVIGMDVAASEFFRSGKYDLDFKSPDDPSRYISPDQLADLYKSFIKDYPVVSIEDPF

T1 sequence (P02769 25-607 limits assumed): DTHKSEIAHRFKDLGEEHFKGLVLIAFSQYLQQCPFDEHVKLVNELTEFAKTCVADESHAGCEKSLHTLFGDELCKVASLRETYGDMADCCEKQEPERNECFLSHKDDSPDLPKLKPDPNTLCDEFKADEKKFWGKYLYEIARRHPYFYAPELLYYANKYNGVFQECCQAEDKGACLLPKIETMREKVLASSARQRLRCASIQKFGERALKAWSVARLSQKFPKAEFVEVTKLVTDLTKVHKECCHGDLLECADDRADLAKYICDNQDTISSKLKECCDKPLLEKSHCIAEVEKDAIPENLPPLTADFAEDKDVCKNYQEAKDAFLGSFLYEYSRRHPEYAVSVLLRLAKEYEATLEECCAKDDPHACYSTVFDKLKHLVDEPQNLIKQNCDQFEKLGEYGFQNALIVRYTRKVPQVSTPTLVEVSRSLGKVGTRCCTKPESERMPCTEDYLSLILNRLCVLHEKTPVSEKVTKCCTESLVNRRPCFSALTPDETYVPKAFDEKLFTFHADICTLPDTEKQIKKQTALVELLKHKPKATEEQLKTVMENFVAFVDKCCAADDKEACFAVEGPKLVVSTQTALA

OD405 [2]: 1.56 OD405
percent of the OD405 of wild type ENO1 [2]: 39%
OD405 [3]: 1.43 OD405
percent of the OD405 of wild type ENO1 [3]: 42%
OD450 [4]: 0.47
B1: EN10 mAb (antibody, V domains shown)
VH: EVQLQQSGPELVKPGASVKMSCKASGYTFTSCVMNWVKQKPGQGLEWIGYINPYNDGTKYNEKFKGKATLTSDKSSSTAYMELSSLTSEDSAVYYCAREGFYYGNFDNWGQGTTLTVSS
VL: DIQMTQSPASLSASVGETVTITCRASENIYSYLTWYQQKQGKSPQLLVYNAKTLPEGVPSRFSGSGSGTQFSLKINSLQPEDFGSYYCQHHYGTPYTFGGGTKLEITR
notes: also called clone 10; anti-human ENO1 antibody clones 10
binding result [1]: no binding (tested: 10 microgram EN10 mAb (amount))
